± gives the standard deviation of the averaged measurements.
tested on: ATP; assay: switch fluorescence ratio, 500 uM ATP over buffer (Cy3 cluster intensity, sum of 5 cycles each) (fold (ratio)); higher = stronger signal-on switching upon ATP binding; sequences stand for … in TCGTCGGCAGCGTCAGATGTGTATAAGAGACAGTTTTTTTTTTTTTTTTTTTTTTTTT…TC; details: aptamer strand: ATP DNA aptamer (quencher-CACCTGGGGGAGTATTGCGGAGGAAGG + anchor), 100 nM annealed; ATP concentration: 500 uM
How it was run: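 Cy3-labelled switching-strand clusters on a modified Illumina MiSeq flow-cell were annealed to 100 nM quencher-labelled ATP aptamer, imaged in selection buffer, then imaged after 15 min with 500 uM ATP at 22 °C. Five buffer/ATP cycles ran, with NaOH stripping and re-annealing between them. The fluorescence ratio is summed target-cycle over summed buffer-cycle Cy3 intensity per cluster, averaged per switch-domain sequence. Clusters outside 100-1000 RFU were excluded.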
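Further: ATP exposure 15 min at 22 °C before imaging.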

Sequence | switch fluorescence ratio
TGTTGGGGAA | 0.9676 ± 0.0074
TGTTGTATGT | 0.994 ± 0.015
TGTTGTCGGT | 0.988 ± 0.063
TGTTGTGTGG | 1.02 ± 0.027
TGTTGTGTGT | 0.985 ± 0.028
TGTTGTTATC | 0.974 ± 0.038
TGTTGTTGGG | 0.9946 ± 0.0087
TGTTGTTTGA | 0.991 ± 0.016
TGTTTAAAAA | 0.987 ± 0.025
TGTTTAAACG | 1.025 ± 0.005
TGTTTAATTC | 1.3 ± 0.39
TGTTTAATTG | 0.97673 ± 0.0004
TGTTTAGTTT | 1.01 ± 0.033
TGTTTATAAT | 0.99 ± 0.013
TGTTTATTTC | 1.03 ± 0.08
TGTTTATTTG | 0.965 ± 0.017
TGTTTCAAGT | 0.973 ± 0.064
TGTTTCGTGG | 0.971 ± 0.02
TGTTTCTAGG | 0.979 ± 0.029
TGTTTCTGGT | 0.969 ± 0.038
TGTTTGGGAA | 1 ± 0.038
TGTTTGGGTG | 1.08 ± 0.11
TGTTTGGTC | 0.997 ± 0.013
TGTTTGTGAT | 1.003 ± 0.0098
TGTTTTAAAT | 0.978 ± 0.03

Sequence | switch fluorescence ratio
TGTTTTAAGG | 1.009 ± 0.0081
TGTTTTAGGT | 1.02 ± 0.029
TGTTTTAGT | 0.992 ± 0.024
TGTTTTATCT | 0.9857 ± 0.0073
TGTTTTCCCT | 0.979 ± 0.053
TGTTTTGCGT | 1.01 ± 0.037
TGTTTTGGGA | 0.997 ± 0.021
TGTTTTGGGG | 0.998 ± 0.035
TGTTTTTCTA | 1 ± 0.044
TGTTTTTCTG | 0.968 ± 0.039
TGTTTTTGCT | 0.969 ± 0.033
TGTTTTTTAG | 1.01 ± 0.024
TTAAAAAAAA | 1.16 ± 0.35
TTAAAAACTG | 0.992 ± 0.033
TTAAAACGGT | 1.21 ± 0.31
TTAAAAGCGT | 1.02 ± 0.013
TTAAAAGGCT | 0.9974 ± 0.0012
TTAAAAGTAG | 1 ± 0.058
TTAAAAGTTT | 0.994 ± 0.043
TTAAAATCGA | 0.972 ± 0.072
TTAAAATCTG | 1.02 ± 0.027
TTAAAATGCT | 0.978 ± 0.011
TTAAAATGGT | 1 ± 0.052
TTAAAATGTT | 1.0072 ± 0.00057
TTAAAATTGC | 1.08 ± 0.064

Sequence | switch fluorescence ratio
TTAAAATTTT | 1.06 ± 0.06
TTAAACCGGT | 1.03 ± 0.037
TTAAACGCGG | 1.05 ± 0.066
TTAAACGCTT | 1.02 ± 0.043
TTAAACGGGA | 1.03 ± 0.024
TTAAACGTTT | 1.02 ± 0.021
TTAAAGCCGG | 0.966 ± 0.061
TTAAAGCCTT | 1.03 ± 0.053
TTAAAGCGCG | 1.04 ± 0.024
TTAAAGGCCC | 1.0667 ± 4.6e-05
TTAAATCTCG | 0.989 ± 0.046
TTAAATGGCA | 0.993 ± 0.033
TTAAATTCGA | 0.966 ± 0.036
TTAAATTGAT | 0.987 ± 0.04
TTAAATTTT | 1.01 ± 0.024
TTAAATTTTG | 1.015 ± 0.0084
TTAAATTTTT | 1.01 ± 0.041
TTAACAGTGG | 0.989 ± 0.032
TTAACAGTTT | 1.001 ± 0.0067
TTAACCGTTT | 1.09 ± 0.08
TTAACCTTTT | 1.36 ± 0.58
TTAACGCCGC | 1.13 ± 0.069
TTAACGCGGA | 1.03 ± 0.011
TTAACGGCGC | 1.04 ± 0.081
TTAACGGGGT | 1.04 ± 0.073

Sequence | switch fluorescence ratio
TTAACGGTAG | 0.983 ± 0.038
TTAACGGTTT | 0.988 ± 0.013
TTAACTCGGA | 0.996 ± 0.056
TTAACTGGAA | 0.978 ± 0.031
TTAACTTGTG | 0.986 ± 0.031
TTAAGAGACG | 1.06 ± 0.07
TTAAGATGCT | 0.997 ± 0.036
TTAAGATGGT | 0.983 ± 0.029
TTAAGCATGT | 1.01 ± 0.017
TTAAGCCTTT | 1.02 ± 0.034
TTAAGCGAAG | 0.953 ± 0.029
TTAAGCGGAG | 1.0092 ± 0.00077
TTAAGGATA | 1.01 ± 0.036
TTAAGGCAAA | 1.03 ± 0.019
TTAAGGCATT | 1.06 ± 0.03
TTAAGGCTTA | 1.01 ± 0.044
TTAAGGGGAC | 1.04 ± 0.037
TTAAGGGGAT | 1 ± 0.032
TTAAGGGGGA | 1.01 ± 0.025
TTAAGGGGGT | 1.03 ± 0.08
TTAAGGTTGG | 0.993 ± 0.031
TTAAGTATTG | 0.9956 ± 0.0079
TTAAGTGTGA | 0.982 ± 0.013
TTAAGTTAGG | 1.02 ± 0.012
TTAAGTTGTT | 0.965 ± 0.016

Sequence | switch fluorescence ratio
TTAATAACTT | 1.01 ± 0.019
TTAATAATAA | 1 ± 0.034
TTAATACTTG | 1.03 ± 0.018
TTAATAGGG | 1 ± 0.022
TTAATAGGTG | 1.14 ± 0.015
TTAATATGGA | 0.999 ± 0.012
TTAATATTAC | 1.01 ± 0.014
TTAATATTTG | 1.01 ± 0.041
TTAATCGGTT | 1.005 ± 0.01
TTAATGCGCA | 1 ± 0.019
TTAATGCTGG | 1 ± 0.033
TTAATGGCGA | 0.986 ± 0.033
TTAATGGGGG | 1.06 ± 0.25
TTAATGTGCG | 1.01 ± 0.023
TTAATGTGGG | 0.995 ± 0.014
TTAATTATCA | 0.998 ± 0.018
TTAATTCCGT | 1.02 ± 0.032
TTAATTCTGG | 0.9976 ± 0.0034
TTAATTGACA | 1.064 ± 0.0092
TTAATTGAGT | 1.012 ± 0.0018
TTAATTGATG | 1.01 ± 0.014
TTAATTGGTG | 1.021 ± 0.009
TTAATTTACA | 1.09 ± 0.044
TTAATTTACT | 1.08 ± 0.043
TTAATTTAG | 0.985 ± 0.027

Sequence | switch fluorescence ratio
TTAATTTCAG | 1.01 ± 0.023
TTAATTTCTA | 0.9901 ± 0.0058
TTACAAGAGG | 0.989 ± 0.024
TTACACGGGG | 0.969 ± 0.036
TTACAGGACG | 1.2 ± 0.22
TTACAGGGCT | 1.037 ± 0.0038
TTACAGGGGG | 1.03 ± 0.057
TTACATAATT | 1.02 ± 0.044
TTACATCTGG | 0.9842 ± 0.007
TTACATGTAG | 1.04 ± 0.013
TTACCAAAAC | 1.41 ± 0.54
TTACCAGAGT | 1.02 ± 0.011
TTACCATTCG | 1.02 ± 0.019
TTACCGTGTT | 1.08 ± 0.037
TTACGACGCA | 3.67 ± 0.76
TTACGACTGT | 1.004 ± 0.0014
TTACGAGATT | 1.01 ± 0.068
TTACGAGTGG | 1.02 ± 0.025
TTACGATTTT | 0.993 ± 0.039
TTACGCATCA | 1.14 ± 0.021
TTACGCCCTT | 1.11 ± 0.08
TTACGGAACT | 1.164 ± 0.0041
TTACGGAAGT | 1.11 ± 0.13
TTACGGAAT | 1.1 ± 0.14
TTACGGACGA | 1.317 ± 0.0043

Sequence | switch fluorescence ratio
TTACGGCGCT | 1.06 ± 0.062
TTACGGGGAT | 1.04 ± 0.016
TTACGGGGGG | 1.02 ± 0.052
TTACGGGTCC | 0.961 ± 0.012
TTACGGTCCC | 1.19 ± 0.24
TTACGGTCTA | 1.03 ± 0.013
TTACGGTGTC | 1.02 ± 0.025
TTACGGTGTT | 1.1 ± 0.099
TTACGTAATA | 1.34 ± 0.023
TTACGTGGGA | 1.02 ± 0.026
TTACGTGTCG | 1.01 ± 0.068
TTACTATTTG | 0.961 ± 0.052
TTACTCATTT | 1.017 ± 0.0018
TTACTGGAAC | 1.06 ± 0.021
TTACTGGGGC | 1.03 ± 0.03
TTACTTCTGG | 0.9796 ± 0.0017
TTACTTGACT | 1.116 ± 0.0085
TTACTTGGGT | 1.02 ± 0.052
TTACTTTGAG | 1.02 ± 0.048
TTACTTTGGA | 1.03 ± 0.023
TTACTTTTTT | 1.02 ± 0.033
TTAGAAAGCA | 1 ± 0.033
TTAGAAAGGA | 1.01 ± 0.025
TTAGAAGATT | 1 ± 0.044
TTAGAAGGTG | 1.16 ± 0.078

Sequence | switch fluorescence ratio
TTAGAAGGTT | 1 ± 0.026
TTAGACCGAA | 1.031 ± 0.0088
TTAGACGATT | 0.998 ± 0.025
TTAGACGCTT | 1 ± 0.011
TTAGACGGC | 0.978 ± 0.097
TTAGAGAAAA | 1.03 ± 0.079
TTAGAGGGTT | 1.01 ± 0.031
TTAGAGTAGT | 0.988 ± 0.013
TTAGAGTATG | 1.0206 ± 0.0007
TTAGAGTGGA | 0.968 ± 0.024
TTAGATTGGT | 0.99 ± 0.033
TTAGATTTTT | 1.002 ± 0.0087
TTAGCAAAAA | 1.1 ± 0.075
TTAGCATATT | 1.01 ± 0.021
TTAGCCGCGG | 0.997 ± 0.016
TTAGCCTCTT | 0.996 ± 0.032
TTAGCGAGGC | 2.13 ± 1.2
TTAGCGGGA | 1 ± 0.023
TTAGCTACTG | 1.03 ± 0.056
TTAGCTCATT | 1 ± 0.02
TTAGCTTGAG | 1.01 ± 0.013
TTAGCTTGCT | 1.019 ± 0.0035
TTAGGAAGTG | 0.999 ± 0.017
TTAGGAATGG | 1.005 ± 0.0015
TTAGGACTAG | 0.9698 ± 0.0048
